One block for each binder: values may come before it.
How the values were obtained:
Conditions in all cases: both partners purified
[1] = target: T1, ALC1^cat (ATPase motor of human ALC1, residues 16-612), 6xHis-tagged (human, UniProt Q86WJ1 16-612); assay: SEC; 7 nmol each of ALC1^cat and ALC1^macro mixed, 10 min on ice, Superdex 200 10/300 GL, 20 mM MES pH 6.5, 300 mM NaCl, 10% glycerol, 0.5 mM TCEP; peak fractions on SDS-PAGE
T1 construct: human ALC1 (Amplified in liver cancer 1; CHD1L), residues 16-612; Made by PCR-based mutagenesis of the ALC1^fl construct (pNIC-CH2); also called ALC1/CHD1L variant that lacks the macro domain; source: E. coli Rosetta 2 (DE3), purified (HisTrap, Q HP, Superdex 200)
T1 sequence (looked up): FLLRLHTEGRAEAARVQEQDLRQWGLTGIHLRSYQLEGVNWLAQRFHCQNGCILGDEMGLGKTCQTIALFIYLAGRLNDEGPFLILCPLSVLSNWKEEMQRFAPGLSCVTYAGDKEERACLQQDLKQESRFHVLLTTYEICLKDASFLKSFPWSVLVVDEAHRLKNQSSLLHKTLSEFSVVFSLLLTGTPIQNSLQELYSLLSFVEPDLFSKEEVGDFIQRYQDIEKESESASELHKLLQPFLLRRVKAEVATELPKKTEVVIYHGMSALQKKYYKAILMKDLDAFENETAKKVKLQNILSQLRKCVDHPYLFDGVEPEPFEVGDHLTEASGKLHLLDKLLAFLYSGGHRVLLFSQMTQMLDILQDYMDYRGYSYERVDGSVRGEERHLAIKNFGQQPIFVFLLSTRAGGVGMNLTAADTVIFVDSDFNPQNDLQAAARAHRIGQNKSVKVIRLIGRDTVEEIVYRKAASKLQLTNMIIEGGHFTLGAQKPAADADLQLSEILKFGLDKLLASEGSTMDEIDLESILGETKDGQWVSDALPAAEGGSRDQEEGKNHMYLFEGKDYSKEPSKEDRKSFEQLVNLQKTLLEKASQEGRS

[2] = target: T2, PARylated GST-tagged human PARP1 (human, UniProt P09874 1-1014, poly(ADP-ribose) (PARylated by incubation with dsDNA and NAD+; sites not stated)); assay: pull-down; 5 μM 6xHis-ALC1^cat and 5 μM ALC1^macroΔ6xHis, Ni-NTA agarose, 1 h at 4°C, 20 mM HEPES pH 7.5, 300 mM NaCl, 10% glycerol, 20 mM imidazole, 0.5 mM TCEP; where indicated 5 μM GST-PARP1 pre-incubated with dsDNA and NAD+; eluate on SDS-PAGE
T2 construct: human PARP1; also called PARylated PARP1; GST-tagged PARP1 (BPS Bioscience); source: bought: BPS Bioscience; incubated with 230 bp dsDNA and NAD+ for 5 min at 37°C

[3] = target: T1, ALC1^cat (ATPase motor of human ALC1, …); assay: as above
[4] = target: T3, PARylated (activated) human PARP1 used in HDX-MS (human, UniProt P09874 1-1014, poly(ADP-ribose) (PARylated; sites not stated)); assay: HDX-MS; ALC1^fl with and without PARylated or non-PARylated PARP1; 50 mM Tris, 50 mM NaCl, 5 mM MgCl2, 1.5 μM 239 bp dsDNA, 1 mM ATP, 1 mM TCEP pH 7.9, ~70% D2O, 23°C, five time points
T3 construct: human PARP1; also called PARylated PARP1
T3 sequence (P09874 whole entry): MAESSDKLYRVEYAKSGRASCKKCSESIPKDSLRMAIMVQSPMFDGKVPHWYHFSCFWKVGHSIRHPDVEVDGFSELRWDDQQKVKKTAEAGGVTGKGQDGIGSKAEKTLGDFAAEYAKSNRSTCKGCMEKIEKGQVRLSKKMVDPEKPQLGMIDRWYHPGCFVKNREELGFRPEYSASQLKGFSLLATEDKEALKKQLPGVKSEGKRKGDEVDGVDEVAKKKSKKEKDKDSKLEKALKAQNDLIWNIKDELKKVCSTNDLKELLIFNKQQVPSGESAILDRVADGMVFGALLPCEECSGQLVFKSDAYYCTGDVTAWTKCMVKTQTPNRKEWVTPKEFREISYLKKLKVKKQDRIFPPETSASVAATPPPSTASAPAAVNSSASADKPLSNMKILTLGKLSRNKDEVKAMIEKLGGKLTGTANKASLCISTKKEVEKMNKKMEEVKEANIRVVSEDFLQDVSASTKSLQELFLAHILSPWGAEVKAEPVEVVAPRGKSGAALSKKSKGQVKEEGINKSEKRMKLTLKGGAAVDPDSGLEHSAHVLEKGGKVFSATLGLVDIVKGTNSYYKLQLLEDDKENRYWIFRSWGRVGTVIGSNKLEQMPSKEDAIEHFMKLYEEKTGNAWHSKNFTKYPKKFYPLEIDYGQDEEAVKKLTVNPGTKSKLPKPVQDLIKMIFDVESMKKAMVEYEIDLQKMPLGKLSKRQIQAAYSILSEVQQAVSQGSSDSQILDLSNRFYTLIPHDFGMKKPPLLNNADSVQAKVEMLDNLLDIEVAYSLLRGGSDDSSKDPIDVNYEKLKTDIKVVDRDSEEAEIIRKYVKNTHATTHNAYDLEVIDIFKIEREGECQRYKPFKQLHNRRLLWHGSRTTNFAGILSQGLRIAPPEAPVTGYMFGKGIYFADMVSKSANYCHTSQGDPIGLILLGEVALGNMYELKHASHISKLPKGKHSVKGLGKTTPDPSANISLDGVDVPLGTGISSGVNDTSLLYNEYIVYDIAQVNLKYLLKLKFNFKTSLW

T2 sequence (P09874 whole entry): as above

binding result [1]: binds
B1: ALC1^macro (macro domain construct of human ALC1, residues 613-879), 6xHis-tagged (domain or fragment, UniProt Q86WJ1 613-879, looked up)
chain: LRNKGSVLIPGLVEGSTKRKRVLSPEELEDRQKKRQEAAAKRRRLIEEKKRQKEEAEHKKKMAWWESNNYQSFCLPSEESEPEDLENGEESSAELDYQDPDATSLKYVSGDVTHPQAGAEDALIVHCVDDSGHWGRGGLFTALEKRSAEPRKIYELAGKMKDLSLGGVLLFPVDDKESRNKGQDLLALIVAQHRDRSNVLSGIKMAALEEGLKKIFLAAKKKKASVHLPRIGHATKGFNWYGTERLIRKHLAARGIPTYIYYFPRSK
notes: human ALC1 (CHD1L), residues 613-879 (linker and macro domain); Made from the ALC1^fl construct (pNIC-CH2); no cleavage of the tag is described for this version; source: E. coli Rosetta 2 (DE3), purified (HisTrap, Q HP/SP HP, Superdex 200)

binding result [2]: binds | binding result [3]: binds
B2: ALC1^macroΔ6xHis (macro domain construct of human ALC1, residues 613-879, 6xHis tag removed by TEV) (domain or fragment, UniProt Q86WJ1 613-879, looked up)
chain: LRNKGSVLIPGLVEGSTKRKRVLSPEELEDRQKKRQEAAAKRRRLIEEKKRQKEEAEHKKKMAWWESNNYQSFCLPSEESEPEDLENGEESSAELDYQDPDATSLKYVSGDVTHPQAGAEDALIVHCVDDSGHWGRGGLFTALEKRSAEPRKIYELAGKMKDLSLGGVLLFPVDDKESRNKGQDLLALIVAQHRDRSNVLSGIKMAALEEGLKKIFLAAKKKKASVHLPRIGHATKGFNWYGTERLIRKHLAARGIPTYIYYFPRSK
notes: human ALC1 (CHD1L), residues 613-879; A TEV-cleavage site was added to the ALC1^macro construct; also called ALC1^macro6xΔHis; non-tagged macro domain; source: E. coli Rosetta 2 (DE3), purified; TEV cleavage of the 6xHis tag, second HisTrap flow-through

binding result [4]: binds
B3: ALC1^fl (essentially full-length human ALC1, residues 16-879), 6xHis-tagged (enzyme, UniProt Q86WJ1 16-879, looked up)
chain: FLLRLHTEGRAEAARVQEQDLRQWGLTGIHLRSYQLEGVNWLAQRFHCQNGCILGDEMGLGKTCQTIALFIYLAGRLNDEGPFLILCPLSVLSNWKEEMQRFAPGLSCVTYAGDKEERACLQQDLKQESRFHVLLTTYEICLKDASFLKSFPWSVLVVDEAHRLKNQSSLLHKTLSEFSVVFSLLLTGTPIQNSLQELYSLLSFVEPDLFSKEEVGDFIQRYQDIEKESESASELHKLLQPFLLRRVKAEVATELPKKTEVVIYHGMSALQKKYYKAILMKDLDAFENETAKKVKLQNILSQLRKCVDHPYLFDGVEPEPFEVGDHLTEASGKLHLLDKLLAFLYSGGHRVLLFSQMTQMLDILQDYMDYRGYSYERVDGSVRGEERHLAIKNFGQQPIFVFLLSTRAGGVGMNLTAADTVIFVDSDFNPQNDLQAAARAHRIGQNKSVKVIRLIGRDTVEEIVYRKAASKLQLTNMIIEGGHFTLGAQKPAADADLQLSEILKFGLDKLLASEGSTMDEIDLESILGETKDGQWVSDALPAAEGGSRDQEEGKNHMYLFEGKDYSKEPSKEDRKSFEQLVNLQKTLLEKASQEGRSLRNKGSVLIPGLVEGSTKRKRVLSPEELEDRQKKRQEAAAKRRRLIEEKKRQKEEAEHKKKMAWWESNNYQSFCLPSEESEPEDLENGEESSAELDYQDPDATSLKYVSGDVTHPQAGAEDALIVHCVDDSGHWGRGGLFTALEKRSAEPRKIYELAGKMKDLSLGGVLLFPVDDKESRNKGQDLLALIVAQHRDRSNVLSGIKMAALEEGLKKIFLAAKKKKASVHLPRIGHATKGFNWYGTERLIRKHLAARGIPTYIYYFPRSK
notes: human ALC1 (CHD1L), residues 16-879; also called Human ALC1^fl (16-879) pNIC-CH2; source: E. coli Rosetta 2 (DE3), purified (HisTrap, Q HP/SP HP, Superdex 200)

Source: article PMC5745148, “Mechanistic Insights into Autoinhibition of the Oncogenic Chromatin Remodeler ALC1” (Molecular Cell, 2017)
